Patent US20220275100A1 (JIANGSU HENGRUI MEDICINE, published 2022)

Key:
[1] = biological target: T1, Fusion protein of CD38 extracellular domain with His tag: CD38-ECD-His (human, UniProt P28907 43-300); experiment: cell-based or functional assay
[2] = biological target: T2, full-length human CD38 on CHO-S cells (CD38-FL-CHOS) (human, UniProt P28907 1-300); experiment: flow cytometry on CD38-FL-CHO-S cells
T2 construct: whole, on cells; also called natural CD38 present on the cell surface

[3] = biological target: T1, Fusion protein of CD38 extracellular …; experiment: ELISA, biotin-labeled CD38-ECD-His on streptavidin-coated plate
Description: The affinity of the anti-CD38 antibodies were determined by the amount of the antibodies binding to CD38 immobilized on the ELISA plate. […] The plate was washed again and tetramethyl benzidine solution was added for color reaction. Finally, stop solution was added. OD450 was measured on a microplate reader and EC50 value was calculated.

[4] = biological target: T1, Fusion protein of CD38 extracellular …; experiment: SPR (Biacore), antibody captured as ligand, Human CD38-His as analyte
Description: Then the human CD38-ECD-His antigen passed through the surface of the chip, and a real-time detection for the reaction signal was performed with Biacore instrument. The resulting binding and dissociation curves were fitted to calculate the affinity values. After the dissociation of each cycle was completed in the experiment, the biochip was washed and regenerated with the regeneration solution supplied in the Human Fc Capture Kit (GE).

IC50 (µg/ml), inhibition of CD38 enzyme activity (cGDPR production from NGD) [1]	Imax (Maximum inhibition rate %) [1]	EC50 [2]	EC50 [3]	Kd [4]	koff [4]	kon [4]	Binder
1.83 µg/mL	44.3%	0.481 µg/mL	0.0276 µg/mL	0.568 nM	0.00117 s⁻¹	2.07e+06 M⁻¹ s⁻¹	hu11E (antibody, human IgG1, kappa, Humanized, human IgG1-E333A / kappa; also called h011-01E) heavy: not shown light: DIVMTQSPDSLAVSLGERATINCRASENVDNYGISFMHWYQQKPGQPPKLLIYRASNLESGVPDRFSGSGSGTDFTLTISSLQAEDVAVYYCQQSNKDPLTFGGGTKVEIKRTVAAPSVFIFPPSDEQLKSGTASVVCLLNNFYPREAKVQWKVDNALQSGNSQESVTEQDSKDSTYSLSSTLTLSKADYEKHKVYACEVTHQGLSSPVTKSFNRGEC
1.2 µg/mL	47.7%	0.474 µg/mL	0.028 µg/mL	0.0585 nM	0.000115 s⁻¹	1.96e+06 M⁻¹ s⁻¹	hu160E (antibody, human IgG1, kappa, Humanized, human IgG1-E333A / kappa; also called h160-01E) heavy: not shown light: DIVMTQSPASLAVSLGERATINCRASESVDNYGISFMHWYQQKPGQPPKLLIYRASNLESGVPDRFSGSGSGTDFTLTISSLQAEDVAVYYCQQTNKDPLTFGGGTKVEIKRTVAAPSVFIFPPSDEQLKSGTASVVCLLNNFYPREAKVQWKVDNALQSGNSQESVTEQDSKDSTYSLSSTLTLSKADYEKHKVYACEVTHQGLSSPVTKSFNRGEC
1.56 µg/mL	89.6%	0.402 µg/mL	0.0259 µg/mL	1.31 nM	0.00138 s⁻¹	1.05e+06 M⁻¹ s⁻¹	hu9E (antibody, human IgG1, kappa, Humanized, human IgG1-E333A / kappa; also called h009-07E) heavy: not shown light: EIVLTQSPATLSLSPGERATLSCRASQSIYTNLHWYQQKPGQSPRLLIKYASQSISGIPARFSGSGSGTDFTLTISSLEPEDFAVYYCQQSNSWPLTFGGGTKVEIKRTVAAPSVFIFPPSDEQLKSGTASVVCLLNNFYPREAKVQWKVDNALQSGNSQESVTEQDSKDSTYSLSSTLTLSKADYEKHKVYACEVTHQGLSSPVTKSFNRGEC
